Test results published in PMC2823633 (The Journal of neuroscience : the official journal of the …, 2009).

T1: GST fusion of the Mint1 PDZ-2 domain (740-825) (UniProt Q02410 740-825, Cys 742 replaced with Ser)
T1 sequence (looked up): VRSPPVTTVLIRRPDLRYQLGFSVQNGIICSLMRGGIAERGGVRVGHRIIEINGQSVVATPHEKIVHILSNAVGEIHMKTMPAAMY


Biological target: T1, GST fusion of the Mint1 PDZ-2 domain …
Experiment: ELISA

Binder | binding result
GVPARTQVEVWV [synthetic artificial peptide GVPARTQVEVWV] | binds
TAKCAARFPTWL [synthetic artificial peptide TAKCAARFPTWL] | binds
GVPARTQVAVAV [doubly substituted peptide GVPARTQVAVAV] | binds

Continued, values first:

binding result | Binder
binds | GHLSESSQVRWL [synthetic artificial peptide GHLSESSQVRWL (positive control)]
binds | ASYCKQRNIVWL [synthetic artificial peptide ASYCKQRNIVWL (positive control)]
